± gives the uncertainty stated by the source.

The chains are these.
B1: Receptor-interacting serine/threonine-protein kinase 2, residues 438 to 518; numbered along this chain, O43353 (parent)
chain: QWIQSKREDIVNQMTEACLNQSLDALLSRDLIMKEDYELVSTKPTRTSKVRQLLDTTDIQGEEFAKVIVQKLKDNKQMGLQ

Variants of B1 are the subject of the data set. Kind of data set: abundance fitness (aPCA) (normalised: wild type 0, dead -1); higher = more abundant; growth selection in yeast, the domain comes from the species named. The conditions noted are these: Homo sapiens.
For the variant QWIQSKREDIVNQMTEACLNQSLDALLSRDLIMKEDYELVSTQPTRTSKVRQLLDTTDIQGEEFAKVIVQKLKDNKQMGLQ [K43Q], the abundance fitness was -0.098 ± 0.14. As to QWIQSKREDIVNQMTEACLNQSLDALLSRDLIMKEDYELVSTYPTRTSKVRQLLDTTDIQGEEFAKVIVQKLKDNKQMGLQ [K43Y], the abundance fitness is -1 ± 0.48. The result for QWIQSKREDIVNQMTEACLNQSLDALLSRDLIMKEDYELVSTLPTRTSKVRQLLDTTDIQGEEFAKVIVQKLKDNKQMGLQ [K43L] reads -0.008 ± 0.075. Consider QWIQSKREDIVNQMTEACLNQSLDALLSRDLIMKEDYELVSTHPTRTSKVRQLLDTTDIQGEEFAKVIVQKLKDNKQMGLQ [K43H], for which the abundance fitness is -0.109 ± 0.28. As for QWIQSKREDIVNQMTEACLNQSLDALLSRDLIMKEDYELVSTDPTRTSKVRQLLDTTDIQGEEFAKVIVQKLKDNKQMGLQ [K43D], the abundance fitness is -1.06 ± 0.37. For QWIQSKREDIVNQMTEACLNQSLDALLSRDLIMKEDYELVSTIPTRTSKVRQLLDTTDIQGEEFAKVIVQKLKDNKQMGLQ [K43I], the abundance fitness is -0.535 ± 0.28. Take QWIQSKREDIVNQMTEACLNQSLDALLSRDLIMKEDYELVSTGPTRTSKVRQLLDTTDIQGEEFAKVIVQKLKDNKQMGLQ [K43G]: the abundance fitness is -0.451 ± 0.049. With QWIQSKREDIVNQMTEACLNQSLDALLSRDLIMKEDYELVSTFPTRTSKVRQLLDTTDIQGEEFAKVIVQKLKDNKQMGLQ [K43F], the abundance fitness was -0.466 ± 0.14. Consider QWIQSKREDIVNQMTEACLNQSLDALLSRDLIMKEDYELVSTCPTRTSKVRQLLDTTDIQGEEFAKVIVQKLKDNKQMGLQ [K43C], for which the abundance fitness was -0.219 ± 0.22. In the case of QWIQSKREDIVNQMTEACLNQSLDALLSRDLIMKEDYELVSTWPTRTSKVRQLLDTTDIQGEEFAKVIVQKLKDNKQMGLQ [K43W] it was -1.04 ± 0.34. On to QWIQSKREDIVNQMTEACLNQSLDALLSRDLIMKEDYELVSTSPTRTSKVRQLLDTTDIQGEEFAKVIVQKLKDNKQMGLQ [K43S], for which the abundance fitness is -0.46 ± 0.088. The result for QWIQSKREDIVNQMTEACLNQSLDALLSRDLIMKEDYELVSTVPTRTSKVRQLLDTTDIQGEEFAKVIVQKLKDNKQMGLQ [K43V] reads -0.348 ± 0.11; that for QWIQSKREDIVNQMTEACLNQSLDALLSRDLIMKEDYELVSTPPTRTSKVRQLLDTTDIQGEEFAKVIVQKLKDNKQMGLQ [K43P], -0.695 ± 0.25; that for QWIQSKREDIVNQMTEACLNQSLDALLSRDLIMKEDYELVSTRPTRTSKVRQLLDTTDIQGEEFAKVIVQKLKDNKQMGLQ [K43R], 0.013 ± 0.061. The result for QWIQSKREDIVNQMTEACLNQSLDALLSRDLIMKEDYELVSTTPTRTSKVRQLLDTTDIQGEEFAKVIVQKLKDNKQMGLQ [K43T] reads -0.89 ± 0.25; that for QWIQSKREDIVNQMTEACLNQSLDALLSRDLIMKEDYELVSTKPTCTSKVRQLLDTTDIQGEEFAKVIVQKLKDNKQMGLQ [R46C], -0.285 ± 0.079. Consider QWIQSKREDIVNQMTEACLNQSLDALLSRDLIMKEDYELVSTKPTHTSKVRQLLDTTDIQGEEFAKVIVQKLKDNKQMGLQ [R46H], for which the abundance fitness was -0.012 ± 0.11. The result for QWIQSKREDIVNQMTEACLNQSLDALLSRDLIMKEDYELVSTKPTETSKVRQLLDTTDIQGEEFAKVIVQKLKDNKQMGLQ [R46E] reads -0.214 ± 0.16. On to QWIQSKREDIVNQMTEACLNQSLDALLSRDLIMKEDYELVSTKPTFTSKVRQLLDTTDIQGEEFAKVIVQKLKDNKQMGLQ [R46F], for which the abundance fitness is -0.447 ± 0.14.

With QWIQSKREDIVNQMTEACLNQSLDALLSRDLIMKEDYELVSTKPTATSKVRQLLDTTDIQGEEFAKVIVQKLKDNKQMGLQ [R46A], the abundance fitness is -0.674 ± 0.11. The result for QWIQSKREDIVNQMTEACLNQSLDALLSRDLIMKEDYELVSTKPTGTSKVRQLLDTTDIQGEEFAKVIVQKLKDNKQMGLQ [R46G] reads -0.596 ± 0.054; that for QWIQSKREDIVNQMTEACLNQSLDALLSRDLIMKEDYELVSTKPTITSKVRQLLDTTDIQGEEFAKVIVQKLKDNKQMGLQ [R46I], 0.007 ± 0.15; that for QWIQSKREDIVNQMTEACLNQSLDALLSRDLIMKEDYELVSTKPTDTSKVRQLLDTTDIQGEEFAKVIVQKLKDNKQMGLQ [R46D], -0.221 ± 0.088.

For QWIQSKREDIVNQMTEACLNQSLDALLSRDLIMKEDYELVSHKPTRTSKVRQLLDTTDIQGEEFAKVIVQKLKDNKQMGLQ [T42H], the abundance fitness was -0.156 ± 0.088. In the case of QWIQSKREDIVNQMTEACLNQSLDALLSRDLIMKEDYELVSKKPTRTSKVRQLLDTTDIQGEEFAKVIVQKLKDNKQMGLQ [T42K] it was -0.206 ± 0.42; in that of QWIQSKREDIVNQMTEACLNQSLDALLSRDLIMKEDYELVSLKPTRTSKVRQLLDTTDIQGEEFAKVIVQKLKDNKQMGLQ [T42L], -0.225 ± 0.073. Regarding QWIQSKREDIVNQMTEACLNQSLDALLSRDLIMKEDYELVSSKPTRTSKVRQLLDTTDIQGEEFAKVIVQKLKDNKQMGLQ [T42S], the abundance fitness worked out at 0.022 ± 0.061. For the variant QWIQSKREDIVNQMTEACLNQSLDALLSRDLIMKEDYELVSRKPTRTSKVRQLLDTTDIQGEEFAKVIVQKLKDNKQMGLQ [T42R], the abundance fitness was determined as 0.066 ± 0.061. Consider QWIQSKREDIVNQMTEACLNQSLDALLSRDLIMKEDYELVSQKPTRTSKVRQLLDTTDIQGEEFAKVIVQKLKDNKQMGLQ [T42Q], for which the abundance fitness was found to be 0.207 ± 0.13.

Consider QWIQSKREDIVNQMTEACLNQSLDALLSRDLIMKEDYELVSYKPTRTSKVRQLLDTTDIQGEEFAKVIVQKLKDNKQMGLQ [T42Y], for which the abundance fitness is -0.406 ± 0.15. With QWIQSKREDIVNQMTEACLNQSLDALLSRDLIMKEDYELVSFKPTRTSKVRQLLDTTDIQGEEFAKVIVQKLKDNKQMGLQ [T42F], the abundance fitness was -0.243 ± 0.086. The result for QWIQSKREDIVNQMTEACLNQSLDALLSRDLIMKEDYELVSDKPTRTSKVRQLLDTTDIQGEEFAKVIVQKLKDNKQMGLQ [T42D] reads -0.318 ± 0.087. QWIQSKREDIVNQMTEACLNQSLDALLSRDLIMKEDYELVSPKPTRTSKVRQLLDTTDIQGEEFAKVIVQKLKDNKQMGLQ [T42P]: the abundance fitness was -0.89 ± 0.16.

For QWIQSKREDIVNQMTEACLNQSLDALLSRDLIMKEDYELVSEKPTRTSKVRQLLDTTDIQGEEFAKVIVQKLKDNKQMGLQ [T42E], the abundance fitness is -0.158 ± 0.29.
